B1: 14-3-3 protein sigma (Homo sapiens), P31947 (parent)
chain: MERASLIQKAKLAEQAERYEDMAAFMKGAVEKGEELSCEERNLLSVAYKNVVGGQRAAWRVLSSIEQKSNEEGSEEKGPEVREYREKVETELQGVCDTVLGLLDSHLIKEAGDAESRVFYLKMKGDYYRYLAEVATGDDKKRIIDSARSAYQEAMDISKKEMPPTNPIRLGLALNFSVFHYEIANSPEEAISLAKTTFDEAMADLHTLSEDSYKDSTLIMQLLRDNLTLWTADNAGEEGGEAPQEPQS
partner: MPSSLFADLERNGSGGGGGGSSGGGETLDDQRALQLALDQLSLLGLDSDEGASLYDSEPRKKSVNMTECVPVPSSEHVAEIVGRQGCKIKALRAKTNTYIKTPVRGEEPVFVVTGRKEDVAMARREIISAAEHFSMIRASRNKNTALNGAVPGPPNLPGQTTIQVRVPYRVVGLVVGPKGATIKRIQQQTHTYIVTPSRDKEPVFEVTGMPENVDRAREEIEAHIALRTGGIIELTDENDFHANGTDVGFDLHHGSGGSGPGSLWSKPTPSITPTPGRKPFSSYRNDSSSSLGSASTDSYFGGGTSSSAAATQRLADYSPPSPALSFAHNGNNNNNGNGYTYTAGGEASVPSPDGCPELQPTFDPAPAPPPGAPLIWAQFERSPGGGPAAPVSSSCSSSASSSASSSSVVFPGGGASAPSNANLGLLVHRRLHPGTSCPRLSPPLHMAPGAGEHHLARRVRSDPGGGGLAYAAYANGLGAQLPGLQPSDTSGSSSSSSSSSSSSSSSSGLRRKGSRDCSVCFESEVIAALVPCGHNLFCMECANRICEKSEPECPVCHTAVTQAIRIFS
B2: 14-3-3 protein sigma (Homo sapiens), P31947 (parent)
chain: B1 chain
partner: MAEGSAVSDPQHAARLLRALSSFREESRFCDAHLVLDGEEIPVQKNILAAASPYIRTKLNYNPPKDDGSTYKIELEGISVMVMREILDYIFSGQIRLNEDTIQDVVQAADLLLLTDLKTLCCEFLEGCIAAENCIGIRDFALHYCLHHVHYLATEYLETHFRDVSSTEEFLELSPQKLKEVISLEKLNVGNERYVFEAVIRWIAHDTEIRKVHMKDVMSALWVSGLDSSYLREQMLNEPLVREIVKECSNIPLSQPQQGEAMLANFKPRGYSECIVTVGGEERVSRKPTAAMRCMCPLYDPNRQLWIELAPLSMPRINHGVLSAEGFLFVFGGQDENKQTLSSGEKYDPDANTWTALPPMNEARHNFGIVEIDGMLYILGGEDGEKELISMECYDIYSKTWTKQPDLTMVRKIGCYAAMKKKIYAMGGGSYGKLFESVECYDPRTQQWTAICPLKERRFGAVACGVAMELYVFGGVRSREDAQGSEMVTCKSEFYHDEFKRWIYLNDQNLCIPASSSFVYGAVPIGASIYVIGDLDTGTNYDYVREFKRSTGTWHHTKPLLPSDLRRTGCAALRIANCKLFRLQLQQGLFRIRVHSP
B3: 14-3-3 protein sigma (Homo sapiens), P31947 (parent)
chain: B1 chain
partner: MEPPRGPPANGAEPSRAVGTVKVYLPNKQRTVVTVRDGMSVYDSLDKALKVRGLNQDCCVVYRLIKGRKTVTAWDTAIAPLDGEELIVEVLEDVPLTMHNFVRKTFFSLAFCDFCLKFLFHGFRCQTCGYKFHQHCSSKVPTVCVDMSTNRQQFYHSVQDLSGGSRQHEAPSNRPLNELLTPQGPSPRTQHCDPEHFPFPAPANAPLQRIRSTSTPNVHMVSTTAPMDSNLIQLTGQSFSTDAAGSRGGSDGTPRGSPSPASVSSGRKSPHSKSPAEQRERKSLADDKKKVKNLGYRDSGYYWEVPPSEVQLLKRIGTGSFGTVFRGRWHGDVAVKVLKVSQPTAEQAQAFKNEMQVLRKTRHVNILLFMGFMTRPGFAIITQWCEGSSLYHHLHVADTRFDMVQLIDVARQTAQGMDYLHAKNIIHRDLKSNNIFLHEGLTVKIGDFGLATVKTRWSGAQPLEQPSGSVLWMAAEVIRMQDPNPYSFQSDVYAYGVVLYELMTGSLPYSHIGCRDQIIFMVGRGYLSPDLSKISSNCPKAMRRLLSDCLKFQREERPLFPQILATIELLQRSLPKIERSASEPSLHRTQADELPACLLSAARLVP
B4: 14-3-3 protein sigma (Homo sapiens), P31947 (parent)
chain: B1 chain
partner: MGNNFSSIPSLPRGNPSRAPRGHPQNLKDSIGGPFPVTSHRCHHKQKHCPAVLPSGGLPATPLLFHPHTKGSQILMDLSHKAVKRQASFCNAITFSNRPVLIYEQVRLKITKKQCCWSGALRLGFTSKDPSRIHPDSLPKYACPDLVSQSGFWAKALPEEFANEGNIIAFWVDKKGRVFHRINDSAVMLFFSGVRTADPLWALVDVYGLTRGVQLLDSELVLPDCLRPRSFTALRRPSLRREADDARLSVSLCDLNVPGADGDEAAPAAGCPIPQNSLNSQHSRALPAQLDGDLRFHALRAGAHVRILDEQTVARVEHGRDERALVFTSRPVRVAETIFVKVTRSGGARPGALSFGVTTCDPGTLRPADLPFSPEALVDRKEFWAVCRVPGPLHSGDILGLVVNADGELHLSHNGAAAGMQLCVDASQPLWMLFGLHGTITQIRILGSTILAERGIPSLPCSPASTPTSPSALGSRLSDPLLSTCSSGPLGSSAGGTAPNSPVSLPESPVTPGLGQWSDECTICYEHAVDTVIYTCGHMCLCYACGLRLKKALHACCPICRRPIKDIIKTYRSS
B5: 14-3-3 protein sigma (Homo sapiens), P31947 (parent)
chain: B1 chain
partner: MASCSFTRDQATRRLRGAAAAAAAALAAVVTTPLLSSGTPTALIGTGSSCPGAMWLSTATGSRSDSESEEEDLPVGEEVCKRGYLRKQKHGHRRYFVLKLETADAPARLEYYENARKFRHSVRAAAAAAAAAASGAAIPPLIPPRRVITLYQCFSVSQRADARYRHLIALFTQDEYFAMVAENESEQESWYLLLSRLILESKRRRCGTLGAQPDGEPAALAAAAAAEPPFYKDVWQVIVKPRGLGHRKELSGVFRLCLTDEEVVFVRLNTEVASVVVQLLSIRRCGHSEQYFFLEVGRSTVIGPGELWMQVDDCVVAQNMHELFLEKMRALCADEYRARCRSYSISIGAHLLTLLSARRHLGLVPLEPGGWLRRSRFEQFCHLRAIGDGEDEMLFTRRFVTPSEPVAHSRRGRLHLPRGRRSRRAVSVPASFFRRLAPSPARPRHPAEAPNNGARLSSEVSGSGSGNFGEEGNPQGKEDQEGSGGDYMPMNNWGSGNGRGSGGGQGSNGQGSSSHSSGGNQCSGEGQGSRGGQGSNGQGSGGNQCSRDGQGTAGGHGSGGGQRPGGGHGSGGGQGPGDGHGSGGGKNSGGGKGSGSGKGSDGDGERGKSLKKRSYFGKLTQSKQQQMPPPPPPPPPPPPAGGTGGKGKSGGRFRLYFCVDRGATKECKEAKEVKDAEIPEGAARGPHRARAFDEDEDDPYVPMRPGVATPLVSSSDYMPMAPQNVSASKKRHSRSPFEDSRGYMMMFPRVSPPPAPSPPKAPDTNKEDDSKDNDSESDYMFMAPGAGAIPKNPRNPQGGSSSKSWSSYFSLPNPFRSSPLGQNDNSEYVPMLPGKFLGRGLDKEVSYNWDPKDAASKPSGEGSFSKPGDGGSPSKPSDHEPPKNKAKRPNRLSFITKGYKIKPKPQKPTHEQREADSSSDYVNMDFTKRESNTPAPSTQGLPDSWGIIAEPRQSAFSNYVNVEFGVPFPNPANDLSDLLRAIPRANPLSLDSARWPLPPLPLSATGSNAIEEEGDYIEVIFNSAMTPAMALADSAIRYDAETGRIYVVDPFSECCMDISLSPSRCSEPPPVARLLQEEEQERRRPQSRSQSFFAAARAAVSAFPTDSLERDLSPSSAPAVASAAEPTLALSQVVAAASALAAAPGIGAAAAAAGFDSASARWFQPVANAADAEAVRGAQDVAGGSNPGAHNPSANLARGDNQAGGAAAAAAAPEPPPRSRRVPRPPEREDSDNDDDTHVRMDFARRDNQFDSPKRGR
B6: 14-3-3 protein sigma (Homo sapiens), P31947 (parent)
chain: B1 chain
partner: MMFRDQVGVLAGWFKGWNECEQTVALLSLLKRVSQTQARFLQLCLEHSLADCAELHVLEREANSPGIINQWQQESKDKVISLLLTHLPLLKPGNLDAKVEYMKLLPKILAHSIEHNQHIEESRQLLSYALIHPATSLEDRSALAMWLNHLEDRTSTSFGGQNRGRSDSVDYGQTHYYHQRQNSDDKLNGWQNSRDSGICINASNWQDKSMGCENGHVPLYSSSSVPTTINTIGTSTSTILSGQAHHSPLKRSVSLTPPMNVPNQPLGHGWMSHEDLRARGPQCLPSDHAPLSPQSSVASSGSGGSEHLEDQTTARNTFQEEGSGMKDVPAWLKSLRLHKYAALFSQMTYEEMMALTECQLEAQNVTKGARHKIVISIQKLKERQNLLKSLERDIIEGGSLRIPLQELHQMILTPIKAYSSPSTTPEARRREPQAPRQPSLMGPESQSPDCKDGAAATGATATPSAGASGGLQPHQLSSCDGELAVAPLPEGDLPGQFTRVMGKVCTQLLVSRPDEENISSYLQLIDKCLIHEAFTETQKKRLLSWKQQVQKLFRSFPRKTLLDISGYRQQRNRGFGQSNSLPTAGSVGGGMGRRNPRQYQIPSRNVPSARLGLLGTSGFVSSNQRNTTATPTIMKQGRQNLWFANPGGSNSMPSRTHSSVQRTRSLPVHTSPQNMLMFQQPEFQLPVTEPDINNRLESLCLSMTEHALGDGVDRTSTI
B7: 14-3-3 protein sigma (Homo sapiens), P31947 (parent)
chain: B1 chain
partner: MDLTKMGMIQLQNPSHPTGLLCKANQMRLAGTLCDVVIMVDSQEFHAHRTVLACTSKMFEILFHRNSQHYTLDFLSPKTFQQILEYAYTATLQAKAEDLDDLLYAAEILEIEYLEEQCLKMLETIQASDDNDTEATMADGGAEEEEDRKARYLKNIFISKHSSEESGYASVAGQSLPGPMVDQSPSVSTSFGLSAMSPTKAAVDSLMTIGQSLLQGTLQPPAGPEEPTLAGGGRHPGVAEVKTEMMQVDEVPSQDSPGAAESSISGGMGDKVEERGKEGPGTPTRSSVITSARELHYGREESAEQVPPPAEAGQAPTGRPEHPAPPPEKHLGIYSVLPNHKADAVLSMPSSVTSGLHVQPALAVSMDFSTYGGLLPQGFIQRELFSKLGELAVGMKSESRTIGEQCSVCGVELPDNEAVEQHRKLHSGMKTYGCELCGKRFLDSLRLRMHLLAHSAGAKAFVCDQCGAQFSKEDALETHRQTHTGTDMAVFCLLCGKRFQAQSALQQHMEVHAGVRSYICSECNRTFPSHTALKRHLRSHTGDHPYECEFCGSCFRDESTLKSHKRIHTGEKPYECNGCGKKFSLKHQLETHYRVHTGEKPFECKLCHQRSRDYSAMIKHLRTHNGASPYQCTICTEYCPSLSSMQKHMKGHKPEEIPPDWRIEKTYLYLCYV

Variants of: B1
Conditions: with mex3b_human MEX3B

Variant | effect of a mutation on the interaction
K49E;R56E;V178D | decreasing interaction strength

Variants of: B2
Conditions: with gan_human GAN

Variant | effect of a mutation on the interaction
K49E;R56E;V178D | decreasing interaction strength

Variants of: B3
Conditions: with araf_human ARAF

Variant | effect of a mutation on the interaction
K49E;R56E;V178D | decreasing interaction strength

Variants of: B4
Conditions: with neul1_human NEURL1, O76050

Variant | effect of a mutation on the interaction
K49E;R56E;V178D | decreasing interaction strength

Variants of: B5
Conditions: with irs4_human IRS4, O14654

Variant | effect of a mutation on the interaction
K49E;R56E;V178D | decreasing interaction strength

Variants of: B6
Conditions: with smag1_human SAMD4A

Variant | effect of a mutation on the interaction
K49E;R56E;V178D | decreasing interaction strength

Variants of: B7
Conditions: with zbt16_human ZBTB16, Q05516

Variant | effect of a mutation on the interaction
K49E;R56E;V178D | decreasing interaction strength

— IntAct's records for PubMed 36931259
